# The RNAGym collection of RNA variant scans (doi:10.7554/elife.90254)
# B1: OR4K15 (parent)
# chain: GUUAACGGUCAUAGGCCAUGGAAACUAGGAGCACCAUUUCGCUGCCAGUGAAGAAAUGAACAAAGAAAAUCUGGGCCAGGCAGGCAUCAAAAGAAAUAGUCUUGCGCUCAACCAGAAAGUCUGUAAUCAUUUUAAGGGUA
# Variants of: B1
# Experiment: self-cleavage, relative activity (ratio to wild type); higher = more cleavage; in vitro, sequencing; the parent is a self-cleaving ribozyme
row,Variant,self-cleavage
1,U72C U122A,0.09
2,U72C A98U,0.3
3,U72C A98G,0.03
4,G73A A116U,0.03
5,A69G U133C,1.33
6,U70C A126U,0.71
7,U70C A126G,0.96
8,U70A A82U,0.24
9,G73A U120C,0.07
10,A69U G136A,2.69
11,G75A A91G,0.14
12,G74A U124A,0.1
13,U72C U133C,0.13
14,U72G U97G,0.3
15,U70G A118G,0.55
16,A69G A116U,0.12
17,A69G A116G,0.56
18,A69G A111C,0.02
19,A69G A134G,1.17
20,U72A U124A,0.1
21,U72A U124G,0.12
22,C71A U124C,0.22
23,G73A A118G,0.14
24,U70C A94U,0.2

row,Variant,self-cleavage
1,U72A A91G,0.19
2,U72A A91U,0.24
3,U72C A129U,0.07
4,A69G C101U,0.26
5,A69G A90G,1.43
6,G73U A78U,0.15
7,U70A A94G,0.72
8,A69G C85U,0.65
9,A69G U87A,1.29
10,A69G U87C,1.66
11,U70C A98U,0.72
12,A69G G106A,0.02
13,U70C U131C,0.65
14,U72G A78G,0.39
15,U70C U102A,0.33
16,U70A A116G,0.59
17,U72A A111U,0.01
18,U70C U124C,0.27
19,U70C U124A,0.17
20,U72C G80A,0.38
21,A69U G137U,2.12
22,A69U G137A,2.13
23,G73U A95G,0.17
24,A69G A96C,1.58

row,Variant,self-cleavage
1,A69G A96G,1.52
2,A69C A117U,0.21
3,G74A A118G,0.14
4,G73A C121G,0.45
5,U72G A135G,0.22
6,A69G A78G,0.27
7,A69G A78C,0.36
8,A68U U70C,0.43
9,A68U A134G,1.78
10,U72A A98U,0.33
11,U70C U127C,0.35
12,U72C A117G,0.22
13,U72C A117C,0.08
14,U70A C77U,2.04
15,A68U U103C,1.42
16,C71U A92G,0.52
17,G75A A116U,0.05
18,U70G U122A,1.34
19,G74U A116U,0.03
20,U72A A126G,0.16
21,U72A A126U,0.37
22,U70C U97C,0.68
23,A69U A95G,2.37
24,A68U U132C,1.76

row,Variant,self-cleavage
1,A69U A111G,0.04
2,U72A U108C,0.01
3,U72A U108A,0.04
4,G75A A135G,0.04
5,U72A A140G,0.32
6,U72C U127A,0.19
7,G74U C121A,0.36
8,U72A A94U,0.37
9,A69G A91G,1.21
10,A69G A91U,1.63
11,C71U A95G,0.97
12,C71U A95U,0.5
13,U72A G119A,0.47
14,U72A U133G,0.36
15,U70A A117G,0.03
16,C71U U130C,0.13
17,G75C A117G,0.15
18,U72G A96G,0.07
19,U72G A95G,0.43
20,U72G A95U,0.12
21,G73A A94G,0.19
22,G74A A96C,0.14
23,G74A A96G,0.24
24,A68U U120C,1.1

row,Variant,self-cleavage
1,A68U U120A,1.48
2,G75A C105U,0.01
3,A69G G80A,0.12
4,C71U A126G,0.32
5,G73A A117G,0.15
6,G74U A118G,0.1
7,U70A A90G,1.12
8,U70C U87G,0.04
9,U72A A82U,0.15
10,U70C A82U,0.37
11,U70A A118G,0.37
12,A69G U120A,1.44
13,A69G U120C,0.98
14,U70C,0.47
15,U70G,0.88
16,U70A,0.83
17,U70A U122C,1.14
18,U70C A117U,0.59
19,G73U A118G,0.02
20,G75A G93A,0.14
21,G73A A95G,0.28
22,G73A A90G,0.03
23,G75C,0.17
24,G75A,0.11

row,Variant,self-cleavage
1,U72A A110C,0.06
2,U70A A89U,1.74
3,U70C U133C,0.98
4,U72A C76U,0.28
5,U70C A78U,0.52
6,G75A A95G,0.05
7,U70C U130A,0.19
8,A69G U100C,2.43
9,G74A C76U,0.11
10,U70A A95G,1.98
11,A68U U72A,0.34
12,G75A U120C,0.02
13,U72G A114C,2.51
14,U72C U132C,0.3
15,A69G U131C,0.55
16,G75A U122A,0.17
17,G75A U122C,0.08
18,U72C A118G,0.1
19,C71U U132C,0.25
20,A69G A114C,0.01
21,A69G A114U,0.1
22,A69G A82G,0.48
23,A69G A82U,0.18
24,G75A G138A,0.13

row,Variant,self-cleavage
1,G75A A82G,0.12
2,G74A A95G,0.35
3,G74U G119A,0.19
4,U70C U108A,0.03
5,U70C U108C,0.02
6,G74A A94U,0.19
7,G74A A94C,0.06
8,A69G A135G,0.07
9,A69G A135U,1.45
10,U72A U102C,0.58
11,A69G U127A,1.8
12,A69G A129G,0.87
13,U72A U120C,0.18
14,A69C A96U,0.68
15,G73U U108C,0.02
16,A69U U102C,2.2
17,U72A A78U,0.15
18,A69G G83A,2.11
19,U70C A95G,1.84
20,G73A U122A,0.15
21,G74C U127C,0.13
22,U70C A111G,0.02
23,G74C A96G,0.29
